One assay deals with T1, 4H452-AA.
T1 chain: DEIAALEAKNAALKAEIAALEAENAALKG
The assay is described as follows: two-hybrid library CCmax.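 Note: natural log of median RNA to DNA barcode read ratio; higher means stronger binding.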 Particulars: mean of both orientations.

Another assay has as its target T2, 4H3001-AA.
T2 chain: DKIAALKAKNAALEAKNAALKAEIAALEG
In words: two-hybrid library CCmax.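 Note: natural log of median RNA to DNA barcode read ratio; higher means stronger binding.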 As to conditions: mean of both orientations.

In a further assay the target is 4H_GCN4. The assay is described as follows: two-hybrid library CCmax.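 Note: natural log of median RNA to DNA barcode read ratio; higher means stronger binding.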
Chain of 4H_GCN4 (chain, as listed by the source): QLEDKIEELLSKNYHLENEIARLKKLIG
Another assay addresses T3, 4H406-AA.
T3 chain: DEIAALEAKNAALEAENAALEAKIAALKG
In words: two-hybrid library CCmax.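 Note: natural log of median RNA to DNA barcode read ratio; higher means stronger binding.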 Particulars: mean of both orientations.

A further assay addresses T4, 4H2732-AA.
T4 chain: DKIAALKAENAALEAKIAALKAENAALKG
In words: two-hybrid library CCmax.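 Note: natural log of median RNA to DNA barcode read ratio; higher means stronger binding.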 As to conditions: mean of both orientations.

The target in a further assay is T5, 4H249-AA.
T5 chain: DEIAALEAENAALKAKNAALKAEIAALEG
In words: two-hybrid library CCmax.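 Note: natural log of median RNA to DNA barcode read ratio; higher means stronger binding.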 Particulars: mean of both orientations.

The target of the next assay is T6, 4H2124-AA.
T6 chain: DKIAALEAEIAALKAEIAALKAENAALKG
In words: two-hybrid library CCmax. Particulars: mean of both orientations.

For another assay, the target named is T7, 4H3073-AA.
T7 chain: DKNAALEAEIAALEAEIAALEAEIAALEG
In words: two-hybrid library CCmax. Particulars: mean of both orientations.

A further assay deals with T8, 4H1930-AA.
T8 chain: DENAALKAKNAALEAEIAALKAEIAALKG
The assay is described as follows: two-hybrid library CCmax.

The target in the next assay is T9, 4H2931-AA.
T9 chain: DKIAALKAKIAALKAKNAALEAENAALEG
The assay is described as follows: two-hybrid library CCmax. As to conditions: mean of both orientations.

The next assay addresses T10, 4H2330-AA.
T10 chain: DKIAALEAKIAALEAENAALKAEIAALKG
The assay is described as follows: two-hybrid library CCmax. Particulars: mean of both orientations.

A further assay has as its target T11, 4H3438-AA.
T11 chain: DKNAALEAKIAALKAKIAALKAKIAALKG
In words: two-hybrid library CCmax. As to conditions: mean of both orientations.

In a further assay the target is T12, 4H2253-AA.
T12 chain: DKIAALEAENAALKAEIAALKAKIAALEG
In words: two-hybrid library CCmax. As to conditions: mean of both orientations.

The target of a further assay is T13, 4H_BCR.
T13 chain: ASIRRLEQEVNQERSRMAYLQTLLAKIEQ
The assay is described as follows: two-hybrid library CCmax. Particulars: mean of both orientations.

Another assay deals with T14, 4H3015-AA.
T14 chain: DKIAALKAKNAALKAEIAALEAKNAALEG
The assay is described as follows: two-hybrid library CCmax. As to conditions: mean of both orientations.

Another assay addresses T15, 4H347-AA.
T15 chain: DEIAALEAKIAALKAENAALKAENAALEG
The assay is described as follows: two-hybrid library CCmax. Particulars: mean of both orientations.

The target in a further assay is T16, 4H_APH.
T16 chain: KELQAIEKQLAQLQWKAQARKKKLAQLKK
In words: two-hybrid library CCmax.

For the next assay, the target named is T17, 4H2592-AA.
T17 chain: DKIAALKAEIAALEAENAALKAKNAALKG
The assay is described as follows: two-hybrid library CCmax. As to conditions: mean of both orientations.

In the next assay the target is T18, 4H2512-AA.
T18 chain: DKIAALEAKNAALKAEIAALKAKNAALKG
In words: two-hybrid library CCmax.

In another assay the target is T19, 4H2774-AA.
T19 chain: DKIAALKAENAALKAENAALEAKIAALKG
The assay is described as follows: two-hybrid library CCmax. As to conditions: mean of both orientations.

The target of another assay is T20, 4H56-AA.
T20 chain: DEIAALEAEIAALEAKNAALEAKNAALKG
The assay is described as follows: two-hybrid library CCmax. Particulars: mean of both orientations.

The target of another assay is T21, 4H2165-AA.
T21 chain: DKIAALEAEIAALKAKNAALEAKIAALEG
In words: two-hybrid library CCmax. Particulars: mean of both orientations.

The next assay addresses T22, 4H2343-AA.
T22 chain: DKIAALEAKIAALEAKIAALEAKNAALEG
In words: two-hybrid library CCmax. Particulars: mean of both orientations.

The next assay addresses GCN2_T. In words: two-hybrid library CCmax.
A further assay has as its target T23, 4H2466-AA.
T23 chain: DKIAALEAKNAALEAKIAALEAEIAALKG
The assay is described as follows: two-hybrid library CCmax. Particulars: mean of both orientations.

Another assay deals with T24, 4H2667-bN.
T24 chain: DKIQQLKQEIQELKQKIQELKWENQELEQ
In words: two-hybrid library CCNG1.

A further assay concerns the target T25, 4H3189-bN.
T25 chain: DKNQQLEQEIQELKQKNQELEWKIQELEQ
The assay is described as follows: two-hybrid library CCNG1.

The target in a further assay is T26, 4H2610-bN.
T26 chain: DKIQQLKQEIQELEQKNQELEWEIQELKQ
In words: two-hybrid library CCNG1.

The target in a further assay is T27, 4H797-bN.
T27 chain: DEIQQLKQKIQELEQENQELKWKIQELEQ
The assay is described as follows: two-hybrid library CCNG1.

In a further assay the target is T28, 4H331-bN.
T28 chain: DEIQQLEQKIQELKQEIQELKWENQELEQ
In words: two-hybrid library CCNG1.

For the next assay, the target named is T29, 4H687-bN.
T29 chain: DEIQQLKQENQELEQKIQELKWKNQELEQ
In words: two-hybrid library CCNG1.

The target of a further assay is T30, 4H918-bN.
T30 chain: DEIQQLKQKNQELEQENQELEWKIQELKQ
In words: two-hybrid library CCNG1.

A further assay concerns the target T31, 4H953-bN.
T31 chain: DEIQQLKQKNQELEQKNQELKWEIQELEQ
In words: two-hybrid library CCNG1.

A further assay has as its target T32, 4H462-bN.
T32 chain: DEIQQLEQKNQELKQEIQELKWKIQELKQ
The assay is described as follows: two-hybrid library CCNG1.

Another assay deals with T33, 4H967-bN.
T33 chain: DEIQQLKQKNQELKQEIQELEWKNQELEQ
In words: two-hybrid library CCNG1.

A further assay addresses T34, 4H2697-bN.
T34 chain: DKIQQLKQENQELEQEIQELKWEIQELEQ
The assay is described as follows: two-hybrid library CCNG1.

The next assay deals with T35, 4H883-bN.
T35 chain: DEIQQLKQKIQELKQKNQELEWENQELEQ
The assay is described as follows: two-hybrid library CCNG1.

The target of the next assay is T36, 4H4001-bN.
T36 chain: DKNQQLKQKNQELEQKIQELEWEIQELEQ
The assay is described as follows: two-hybrid library CCNG1.

A further assay addresses T37, 4H3782-bN.
T37 chain: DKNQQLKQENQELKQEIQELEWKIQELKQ
In words: two-hybrid library CCNG1.

The target of another assay is T38, 4H370-bN.
T38 chain: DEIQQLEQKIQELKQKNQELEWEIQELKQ
The assay is described as follows: two-hybrid library CCNG1.

Another assay concerns the target T39, 4H568-bN.
T39 chain: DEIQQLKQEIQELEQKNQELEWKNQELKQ
The assay is described as follows: two-hybrid library CCNG1.

The target in the next assay is T40, 4H72-bN.
T40 chain: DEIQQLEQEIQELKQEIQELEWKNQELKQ
The assay is described as follows: two-hybrid library CCNG1.

The next assay addresses T41, 4H607-bN.
T41 chain: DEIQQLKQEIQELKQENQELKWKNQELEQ
In words: two-hybrid library CCNG1.

A further assay deals with T42, 4H3843-bN.
T42 chain: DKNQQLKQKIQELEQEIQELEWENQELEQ
In words: two-hybrid library CCNG1.

For a further assay, the target named is T43, 4H3606-bN.
T43 chain: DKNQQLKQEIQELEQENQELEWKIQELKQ
In words: two-hybrid library CCNG1.

The next assay has as its target T44, 4H883-bA.
T44 chain: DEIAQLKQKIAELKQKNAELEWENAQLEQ
In words: two-hybrid library CCNG1.

DENAALKAKNAALEAEIAALKAEIAALKG [4H1930-AA]: the interaction score is -1.51 in the assay with 4H452-AA; -1.62 in the assay with 4H3001-AA; -1.23 with 4H_GCN4; -1.92 with 4H406-AA; -1.87 with 4H2732-AA; -1.82 with 4H249-AA. For the same molecule, the interaction score with 4H2124-AA is -1.14; with 4H3073-AA, -0.77; with 4H1930-AA, 1.78; in the assay with 4H2931-AA, -1.91; with 4H2330-AA it was -1.7; with 4H3438-AA it was -1.3. The interaction score is -1.35 in the assay with 4H2253-AA; -1.93 with 4H_BCR; -1.72 in the assay with 4H3015-AA; -1.32 in the assay with 4H347-AA; -1.06 with 4H_APH; -1.46 with 4H2592-AA. Moreover, the interaction score with 4H2512-AA was -3.66; with 4H2774-AA, -1.57; with 4H56-AA, -2.31; with 4H2165-AA it was -1.35; in the assay with 4H2343-AA, -1.34; with GCN2_T, -1.22. This molecule also had an interaction score with 4H2466-AA of -1.3.

Consider DKIQQLKQEIQELEQKNQELEWEIQELKQ [4H2610-bN], for which the interaction score with 4H2667-bN was 0.011; in the assay with 4H3189-bN, -0.821; with 4H2610-bN, 0.245; with 4H797-bN, -1.16; in the assay with 4H331-bN, 0.616; with 4H687-bN it was -1.82. The interaction score is -0.666 with 4H918-bN; -0.363 with 4H953-bN; 1.63 with 4H462-bN; -0.795 in the assay with 4H967-bN; -0.363 in the assay with 4H2697-bN; -0.137 with 4H883-bN. The interaction score was -0.736 with 4H4001-bN; -1.11 in the assay with 4H3782-bN; -2.72 in the assay with 4H370-bN; -0.762 in the assay with 4H568-bN; -1.85 with 4H72-bN; -0.966 in the assay with 4H607-bN. Also, the interaction score is 0.0276 with 4H3843-bN, -1.38 in the assay with 4H3606-bN and 0.288 with 4H883-bA.

For the origin of these results see publication PMC10397247.
